From patent US20220211037A1, “BIOSENSORS FOR DROUGHT STRESS IN PLANTS” (The Regents of the University of California, priority 2019, published 2022)

Key:
[1] = target: 1:1 mixture of PYL3 containing PYL3-Cy5.5 and PYL3-BHQ3 (Arabidopsis thaliana); assay: static light scattering of the PYL3-Cy5.5/PYL3-BHQ3 mixture, 40 µM ABA
[2] = target: 1:1 mixture of PYL3 containing PYL3-Cy5.5 and PYL3-BHQ3 (Arabidopsis thaliana); assay: Cy5.5 fluorescence of the PYL3-Cy5.5/PYL3-BHQ3 mixture (quenched in dimers), 40 µM ABA
[3] = target: 1:1 mixture of PYL3 containing PYL3-Cy5.5 and PYL3-BHQ3 (Arabidopsis thaliana); assay: Cy5.5 fluorescence of the PYL3-Cy5.5/PYL3-BHQ3 mixture (quenched in dimers), 1000 µM ABA
[4] = target: 1:1 mixture of PYL3 containing PYL3-Cy5.5 and PYL3-BHQ3 (Arabidopsis thaliana); assay: Cy5.5 fluorescence of the PYL3-Cy5.5/PYL3-BHQ3 mixture (quenched in dimers), 100 µM ABA
[5] = target: 1:1 mixture of PYL3 containing PYL3-Cy5.5 and PYL3-BHQ3 (Arabidopsis thaliana); assay: static light scattering of the PYL3-Cy5.5/PYL3-BHQ3 mixture, 1000 µM ABA
[6] = target: 1:1 mixture of PYL3 containing PYL3-Cy5.5 and PYL3-BHQ3 (Arabidopsis thaliana); assay: static light scattering of the PYL3-Cy5.5/PYL3-BHQ3 mixture, 1.0 µM ABA
[7] = target: 1:1 mixture of PYL3 containing PYL3-Cy5.5 and PYL3-BHQ3 (Arabidopsis thaliana); assay: calculated from static light scattering of the mixture, 100 µM ABA
[8] = target: 1:1 mixture of PYL3 containing PYL3-Cy5.5 and PYL3-BHQ3 (Arabidopsis thaliana); assay: calculated from static light scattering of the mixture, 1.0 µM ABA
[9] = target: 1:1 mixture of PYL3 containing PYL3-Cy5.5 and PYL3-BHQ3 (Arabidopsis thaliana); assay: calculated from static light scattering of the mixture, 40 µM ABA
[10] = target: 1:1 mixture of PYL3 containing PYL3-Cy5.5 and PYL3-BHQ3 (Arabidopsis thaliana); assay: calculated from static light scattering of the mixture, 1000 µM ABA
[11] = target: 1:1 mixture of PYL3 containing PYL3-Cy5.5 and PYL3-BHQ3 (Arabidopsis thaliana); assay: calculated from static light scattering of the mixture, 0.1 µM ABA
[12] = target: 1:1 mixture of PYL3 containing PYL3-Cy5.5 and PYL3-BHQ3 (Arabidopsis thaliana); assay: static light scattering of the PYL3-Cy5.5/PYL3-BHQ3 mixture, 100 µM ABA
[13] = target: 1:1 mixture of PYL3 containing PYL3-Cy5.5 and PYL3-BHQ3 (Arabidopsis thaliana); assay: static light scattering of the PYL3-Cy5.5/PYL3-BHQ3 mixture, 0.1 µM ABA
[14] = target: 1:1 mixture of PYL3 containing PYL3-Cy5.5 and PYL3-BHQ3 (Arabidopsis thaliana); assay: Cy5.5 fluorescence of the PYL3-Cy5.5/PYL3-BHQ3 mixture (quenched in dimers), 1.0 µM ABA
[15] = target: 1:1 mixture of PYL3 containing PYL3-Cy5.5 and PYL3-BHQ3 (Arabidopsis thaliana); assay: Cy5.5 fluorescence of the PYL3-Cy5.5/PYL3-BHQ3 mixture (quenched in dimers), 0.1 µM ABA

With “1:1 mixture of PYL3 containing PYL3-Cy5.5 and PYL3-BHQ3” the Average molar mass (measured, amu) [1] was 43300 amu, the Fluorescence (measured) [2] was 5300 cps and the Fluorescence (measured) [3] was 9490 cps. It also gave a Fluorescence (measured) [4] of 6710 cps, an Average molar mass (measured, amu) [5] of 31100 amu and an Average molar mass (measured, amu) [6] of 47400 amu. For the same substance, the PYLs in dimers (hetero- and homodimers, %) [7] was 32%, the PYLs in monomers (%) [7] was 68% and the PYLs in dimers (hetero- and homodimers, %) [8] was 84%. The PYLs in monomers (%) [8] was 16%, the PYLs in dimers (hetero- and homodimers, %) [9] was 68% and the PYLs in monomers (%) [9] was 32%. The PYLs in dimers (hetero- and homodimers, %) [10] was 20%, the PYLs in monomers (%) [10] was 80% and the PYLs in dimers (hetero- and homodimers, %) [11] was 98%. It also gave a PYLs in monomers (%) [11] of 2%, an Average molar mass (measured, amu) [12] of 34000 amu and an Average molar mass (measured, amu) [13] of 51100 amu. For the same substance, the Fluorescence (measured) [14] was 4290 cps and the Fluorescence (measured) [15] was 3960 cps.
